Reference: US20190135908A1 (Novartis, published 2019)
Where a chain is given by its changes, count along the chain named.

Columns and labels:
[1] = molecular target: T1, Rat GDF15 HIS: HIS-tagged rat GDF15 (rat, UniProt Q9Z0J6 189-303, limits assumed); assay: Biacore SPR, IgG captured via anti-human Fc, GDF15 in flow
T1 construct: also called Rat His-GDF15; not shown: His tag
T1 sequence (looked up): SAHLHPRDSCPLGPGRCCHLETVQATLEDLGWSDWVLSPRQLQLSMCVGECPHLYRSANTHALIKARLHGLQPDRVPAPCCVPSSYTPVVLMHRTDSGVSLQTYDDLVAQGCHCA
Protocol: (§1) Biacore assay is based on surface plasmon resonance (SPR) and were used to determine the binding affinity of antibodies to GDF15.
(§2) Anti-human Fc capture antibody was immobilized at 0.5 μg/ml on CMS chip in all four flow cells to achieve 8000 to 12,000 resonance units (RU) on the surface. Anti-hGDF15 antibodies were captured at flow rate […], at 0.25 to 0.5 μg/ml on the chip to get about 30 RU in flow cells 2, 3 and 4. GDF15 ligand was flowed at […] over captured antibodies and reference flow cell 1 for 600 and 1200 seconds contact time. Eight doses serially diluted 1 to 2, ranging from 20 to 0.156 nM, were tested. All cycles were repeated twice, regenerated between cycles with 3M MgCl₂ at flow […], 20 seconds contact time. Data were normalized by subtracting reference flow cell results. Data were fit with 1:1 Kinetics model with RI (bulk refractive index) set constant at 0.

[2] = molecular target: T2, Mouse His-GDF15: HIS-tagged mouse GDF15 (mouse, UniProt Q9Z0J7 189-303); assay: as above
T2 construct: not shown: His tag
T2 sequence (looked up): T1 sequence (looked up) with L4A, L63Q, R75K, Q110R
Protocol: as §1, §2

[3] = molecular target: T3, Human GDF15 native: naturally produced human GDF15 purchased from Peprotech (human, UniProt Q99988 195-308); assay: as above
T3 construct: Bought protein
T3 sequence: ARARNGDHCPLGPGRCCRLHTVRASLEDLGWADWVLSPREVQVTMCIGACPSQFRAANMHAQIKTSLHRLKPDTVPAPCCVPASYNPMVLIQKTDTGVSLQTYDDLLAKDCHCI
Protocol: as §1, §2

[4] = molecular target: T4, Human His-GDF15: HIS-tagged human GDF15 (human, UniProt Q99988 195-308); assay: as above
T4 construct: not shown: His tag
T4 sequence: T3 sequence
Protocol: as §1, §2

[5] = molecular target: T5, Cyno His-GDF15: HIS-tagged cyno GDF15 (cynomolgus, UniProt G7PWZ3 197-308, limits assumed); assay: as above
T5 construct: not shown: His tag
T5 sequence (looked up): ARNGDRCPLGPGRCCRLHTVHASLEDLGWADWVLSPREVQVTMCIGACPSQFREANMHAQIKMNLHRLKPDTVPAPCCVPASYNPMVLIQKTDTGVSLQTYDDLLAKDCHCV
Protocol: as §1, §2

[6] = molecular target: T6, human GDF15 (target of the SET measurements; form not stated) (human, UniProt Q99988 195-308, limits assumed); assay: solution equilibrium titration (SET); SET, not Biacore
T6 sequence: T3 sequence

[7] = molecular target: T7, GDF15 mutant M253R (wrist region), albumin fusion (human, UniProt Q99988 195-308); assay: direct ELISA on coated albumin-fusion GDF15 variant
T7 construct: not shown: albumin fusion partner
T7 chain: T3 sequence with M59R
Protocol: (§3) Antibody epitope was determined by a direct ELISA method with GDF15 mutants. Albumin fusion GDF15 mutants were coated in wells of a 96-well EIA plate. After blocking, serially diluted anti-hGDF15 human antibodies were added to the GDF15-coated wells, followed by incubation at an ambient temperature for a few hours. Antibody binding was detected using an anti-human IgG antibody conjugated with horseradish peroxidase (HRP) and HRP substrate.

[8] = molecular target: T8, GDF15 mutant S278R (back-of-hand), albumin fusion (human, UniProt Q99988 195-308); assay: as above
T8 construct: not shown: albumin fusion partner
T8 chain: T3 sequence with S84R
Protocol: as §3

[9] = molecular target: T9, GDF15 mutant W228R (wrist region), albumin fusion (human, UniProt Q99988 195-308); assay: as above
T9 construct: not shown: albumin fusion partner
T9 chain: T3 sequence with W34R
Protocol: as §3

[10] = molecular target: T10, GDF15 mutant D289R (finger tip region), albumin fusion (human, UniProt Q99988 195-308); assay: as above
T10 construct: not shown: albumin fusion partner
T10 chain: T3 sequence with D95R
Protocol: as §3

[11] = molecular target: T11, GDF15 mutant Q247R (wrist region), albumin fusion (human, UniProt Q99988 195-308); assay: as above
T11 construct: not shown: albumin fusion partner
T11 chain: T3 sequence with Q53R
Protocol: as §3

[12] = molecular target: T12, GDF15 mutant S231R (knuckle region), albumin fusion (human, UniProt Q99988 195-308); assay: direct ELISA: albumin fusion GDF15 mutant coated on the plate, serially diluted antibody, anti-human IgG-HRP detection
T12 construct: not shown: albumin fusion partner
T12 chain: T3 sequence with S37R
Protocol: as §3

[13] = molecular target: T13, GDF15 mutant L294R (knuckle region), albumin fusion (human, UniProt Q99988 195-308); assay: direct ELISA on coated albumin-fusion GDF15 mutant
T13 construct: not shown: albumin fusion partner
T13 chain: T3 sequence with L100R
Protocol: as §3

[14] = molecular target: T14, GDF15 mutant I285R (knuckle region), albumin fusion (human, UniProt Q99988 195-308); assay: direct ELISA on coated albumin-fusion GDF15 mutant
T14 construct: not shown: albumin fusion partner
T14 chain: T3 sequence with I91R
Protocol: as §3

[15] = molecular target: T3, Human GDF15 native: naturally produced …; assay: Biacore SPR (rounded from Table 2, human GDF15 native)
Protocol: as §2

- Kd [1]: 0.138 nM
- koff [1]: 0.000365 s⁻¹
- kon [1]: 2.63e+06 M⁻¹ s⁻¹
- Kd [2]: 0.154 nM
- koff [2]: 0.000343 s⁻¹
- kon [2]: 2.23e+06 M⁻¹ s⁻¹
- Kd [3]: 0.0882 nM
- koff [3]: 0.000512 s⁻¹
- kon [3]: 5.8e+06 M⁻¹ s⁻¹
- Kd [4]: 0.137 nM
- koff [4]: 0.000533 s⁻¹
- kon [4]: 3.9e+06 M⁻¹ s⁻¹
- Kd [5]: 0.12 nM
- koff [5]: 0.000694 s⁻¹
- kon [5]: 5.79e+06 M⁻¹ s⁻¹
- Kd [6]: 0.02 nM
- binding result [7]: binds
- binding result [8]: binds
- binding result [9]: binds
- binding result [10]: binds
- binding result [11]: binds
- binding result [12]: binds
- binding result [13]: no binding
- binding result [14]: no binding
- Kd [15]: 0.088 nM
B1: ABGDF15-G (antibody, human IgG1, kappa, V domains shown)
VH: QVQLVQSGAEVKKPGSSVKVSCKASGGTFSSHYINWVRQAPGQGLEWMGGIIPAFGGANYAQKFQGRVTITADESTSTAYMELSSLRSEDTAVYYCARFGSVYVSRYSSYYHMDVWGQGTLVTVSS
VL: DIQMTQSPSSLSASVGDRVTITCRASQTIYRSLAWYQQKPGKAPKLLIYGASILQSGVPSRFSGSGSGTDFTLTISSLQPEDFATYYCLQRYTSPFTFGQGTKVEIKR
notes: captured through anti-human Fc in the Biacore assay
